Like-named read-outs stand apart in the source and are kept apart here.
Experiments:
[1] = target: T1, Human LILRB2 stably expressed on EL4 cells (EL4/LILRB2) (human, UniProt Q8N423 22-597); assay: Competitive FACS: EL4/LILRB2 cells preincubated with 10 ug/mL antibody, then ANGPTL4 added; inhibition of the ligand's binding to the cells [panel ANGPTL4]
T1 construct: also called EL4-LILRB2 cells; cell membrane human LILRB2
Protocol: (§1) The blocking activities were determined by quantitating the blockade of the ligands binding to EL4/LILRB2 cells.

[2] = target: T2, Cell membrane human LILRB2 on human primary monocytes from healthy donors (human, UniProt Q8N423 22-597); assay: FACS on human primary monocytes, Donor #6004
T2 construct: whole, on cells; Endogenous receptor on donor cells; the donors' alleles are not known; Also used as the target in the functional assays on PBMCs, monocytes, macrophages and dendritic cells; also called membrane LILRB2; LILRB2 on human primary monocytes, PBMCs, monocyte derived macrophages and dendritic cells

[3] = target: T1, Human LILRB2 stably expressed on EL4 …; assay: Competitive FACS: EL4/LILRB2 cells preincubated with 10 ug/mL antibody, then HLA-A2 complex added; inhibition of the ligand's binding to the cells [panel HLA-A2]
Protocol: as §1

[4] = target: T3, 6×His-tagged human LILRB2 ECD recombinant protein (human, UniProt Q8N423 22-458, limits assumed); assay: Octet tandem binning on captured 6×His LILRB2 ECD; competitor (Ab1) 1E1
T3 construct: Bought protein; not shown: 6×His-tag

[5] = target: T4, Human LILRA5 ECD recombinant protein with 6×His-tag (human, UniProt A6NI73 42-268); assay: ELISA: plate coated with LILRA5 ECD recombinant protein, antibody at 0.5 ug/mL (method of example 3.2.1); mean OD450 printed over the bar [continued) E]
T4 construct: range 1-268; Bought protein; not shown: 6×His-tag

[6] = target: T3, 6×His-tagged human LILRB2 ECD …; assay: ELISA: plate coated with 6xHis-tagged human LILRB2 ECD, antibody at 0.5 ug/mL, HRP detection antibody; mean OD450 printed over the bar
Protocol: Briefly, 0.5 μg/mL anti-LILRB2 antibodies were incubated in human LILRB2 ECD recombinant protein-coated ELISA plate at 37° C. for 1 hour. After washing, horseradish peroxidase (HRP) labeled detection antibody was added and incubated at 37° C. for 1 hour. Color development was conducted by the addition of 100 μl/well of TMB (3,3′,5,5′-Tetramethylbenzidine) solution. After incubation at room temperature (RT) for 10-15 minutes, the reaction was stopped by adding 100 μl 1N HCl. Then the plates were read immediately using plate reader for optical density at 450 nm.

[7] = target: T2, Cell membrane human LILRB2 on human …; assay: FACS on human primary monocytes, Donor #1045
[8] = target: T5, Human LILRA2 ECD recombinant protein with His-tag (human, UniProt Q8N149 24-449); assay: ELISA: plate coated with LILRA2 ECD recombinant protein, antibody at 0.5 ug/mL (method of example 3.2.1); mean OD450 printed over the bar [continued) B]
T5 construct: range 24-449; Bought protein; not shown: His-tag

[9] = target: T6, Human LILRA3 ECD recombinant protein with 6×His-tag (human, UniProt Q8N6C8 24-439); assay: ELISA: plate coated with LILRA3 ECD recombinant protein, antibody at 0.5 ug/mL (method of example 3.2.1); mean OD450 printed over the bar [continued) C]
T6 construct: range 1-439; Bought protein; not shown: 6×His-tag

[10] = target: T1, Human LILRB2 stably expressed on EL4 …; assay: Competitive FACS: EL4/LILRB2 cells preincubated with 10 ug/mL antibody, then ANGPTL7 added; inhibition of the ligand's binding to the cells [panel ANGPTL7]
Protocol: as §1

[11] = target: T1, Human LILRB2 stably expressed on EL4 …; assay: competitive FACS, blockade of HLA-G binding to LILRB2 on cells
Protocol: as §1

[12] = target: T1, Human LILRB2 stably expressed on EL4 …; assay: FACS on EL4/LILRB2 cells
[13] = target: T1, Human LILRB2 stably expressed on EL4 …; assay: FACS on EL4/LILRB2 cells; remark: listed apart in the source
[14] = target: T2, Cell membrane human LILRB2 on human …; assay: cell-based or functional assay
[15] = target: T3, 6×His-tagged human LILRB2 ECD …; assay: Octet, 1:1 model; column printed as 'kd (1/s)', heads of c4 and c5 are swapped
[16] = target: T2, Cell membrane human LILRB2 on human …; assay: cell-based or functional assay; remark: listed apart in the source

T2 sequence (Q8N423 22-597): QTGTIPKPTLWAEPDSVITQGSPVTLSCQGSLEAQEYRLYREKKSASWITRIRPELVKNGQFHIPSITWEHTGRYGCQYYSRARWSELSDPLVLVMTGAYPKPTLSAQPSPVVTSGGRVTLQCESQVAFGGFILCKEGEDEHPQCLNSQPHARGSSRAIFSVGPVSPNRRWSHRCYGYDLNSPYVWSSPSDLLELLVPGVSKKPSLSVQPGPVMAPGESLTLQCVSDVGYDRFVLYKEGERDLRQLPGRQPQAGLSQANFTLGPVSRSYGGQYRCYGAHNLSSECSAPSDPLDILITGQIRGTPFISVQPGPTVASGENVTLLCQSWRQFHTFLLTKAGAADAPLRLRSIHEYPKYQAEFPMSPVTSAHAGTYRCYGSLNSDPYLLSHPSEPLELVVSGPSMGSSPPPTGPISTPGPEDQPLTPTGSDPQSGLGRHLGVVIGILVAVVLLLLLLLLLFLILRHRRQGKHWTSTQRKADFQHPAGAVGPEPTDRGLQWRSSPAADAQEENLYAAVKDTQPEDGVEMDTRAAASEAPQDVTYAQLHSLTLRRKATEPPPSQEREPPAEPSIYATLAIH
T1 sequence (Q8N423 22-597 limits assumed): as the sequence (Q8N423 22-597) above
T6 sequence (Q8N6C8 24-439 limits assumed, form in doubt): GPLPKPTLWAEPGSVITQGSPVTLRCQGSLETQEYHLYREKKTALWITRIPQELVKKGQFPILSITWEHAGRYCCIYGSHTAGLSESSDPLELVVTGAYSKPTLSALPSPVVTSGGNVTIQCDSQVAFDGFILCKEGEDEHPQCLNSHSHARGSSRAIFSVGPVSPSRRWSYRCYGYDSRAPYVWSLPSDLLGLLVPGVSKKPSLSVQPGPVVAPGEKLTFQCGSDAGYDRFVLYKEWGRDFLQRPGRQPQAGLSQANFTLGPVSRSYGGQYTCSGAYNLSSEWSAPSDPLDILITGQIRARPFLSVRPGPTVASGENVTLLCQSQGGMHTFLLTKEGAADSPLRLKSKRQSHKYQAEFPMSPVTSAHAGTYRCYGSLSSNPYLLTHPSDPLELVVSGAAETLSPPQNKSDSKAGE
T5 sequence (Q8N149 24-449 limits assumed): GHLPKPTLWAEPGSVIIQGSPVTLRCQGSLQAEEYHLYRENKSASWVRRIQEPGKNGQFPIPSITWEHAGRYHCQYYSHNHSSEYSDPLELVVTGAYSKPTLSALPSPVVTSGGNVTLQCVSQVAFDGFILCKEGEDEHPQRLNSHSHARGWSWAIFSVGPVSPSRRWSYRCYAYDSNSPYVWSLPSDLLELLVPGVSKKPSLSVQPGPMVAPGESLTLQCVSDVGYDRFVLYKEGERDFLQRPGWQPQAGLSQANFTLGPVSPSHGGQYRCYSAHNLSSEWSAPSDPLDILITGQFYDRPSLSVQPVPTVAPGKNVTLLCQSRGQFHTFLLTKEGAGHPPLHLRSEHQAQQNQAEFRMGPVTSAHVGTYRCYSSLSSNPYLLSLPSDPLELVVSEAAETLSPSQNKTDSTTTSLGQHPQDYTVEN
T3 sequence (Q8N423 22-458 limits assumed): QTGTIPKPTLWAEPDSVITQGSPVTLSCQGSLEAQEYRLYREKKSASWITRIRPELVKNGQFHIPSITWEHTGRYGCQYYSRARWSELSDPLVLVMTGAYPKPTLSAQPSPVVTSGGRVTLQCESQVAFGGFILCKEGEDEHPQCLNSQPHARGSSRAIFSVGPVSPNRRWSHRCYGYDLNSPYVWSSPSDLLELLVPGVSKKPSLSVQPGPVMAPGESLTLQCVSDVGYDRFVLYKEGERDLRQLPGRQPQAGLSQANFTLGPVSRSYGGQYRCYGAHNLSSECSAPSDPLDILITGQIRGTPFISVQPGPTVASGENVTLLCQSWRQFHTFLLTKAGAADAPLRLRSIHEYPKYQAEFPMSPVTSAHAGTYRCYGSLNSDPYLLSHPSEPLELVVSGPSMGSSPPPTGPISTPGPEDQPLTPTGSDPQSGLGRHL
T4 sequence (A6NI73 42-268 limits assumed, form in doubt): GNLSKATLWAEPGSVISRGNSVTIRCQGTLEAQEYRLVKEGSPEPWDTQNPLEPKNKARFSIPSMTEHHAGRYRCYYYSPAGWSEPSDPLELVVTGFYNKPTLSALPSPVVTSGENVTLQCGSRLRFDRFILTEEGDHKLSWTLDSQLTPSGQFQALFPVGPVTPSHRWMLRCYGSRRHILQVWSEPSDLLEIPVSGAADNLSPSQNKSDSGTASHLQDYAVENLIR

B1: 1E1 (antibody, V domains shown)
VH: QVQLQQWGAGLLKPSETLSLTCAVYGGSFSGYYWSWIRQPPGKGLEWIGEINHSGSTNYNPSLKSRVTISVDTSKNQFSLKLSSVTAADTAVYYCARLPTRWVTTRYFDLWGRGTLVTVSS
VL: QSVLTQPPSVSGAPGQRVTISCTGSSSNIGAGYDVHWYQQLPGTAPKLLIYGNSNRPSGVPDRFSVSKSGASASLAITGLQAEDEADYYCQSFDNSLSAYVFGGGTQLTVL
notes: Human IgG4 monoclonal antibody with S228P in the constant region, made according to US 2018/0298096 A1; also called benchmark antibody 1E1
Inhibition (%) [1]: 54% | EC50 [2]: 0.91 nM | Inhibition (%) [3]: 99% | relative binding signal of Ab2 in tandem [4]: 3% | OD450 [5]: 0.07 | OD450 [6]: 1.42 | EC50 [7]: 0.84 nM | OD450 [8]: 0.07 | OD450 [9]: 0.07 | Inhibition (%) [10]: 96%

B2: J-19 (antibody, V domains shown)
VH: QVTLKESGPGILQPSHTLSLTCSFSGFSLNTYAMGVSWIRQPSGKGLEWLASIWWNGNKYNNPSLKSRLTVSKDTSNNQAFLKVTSVDTADTATYYCAHSRIIRFTDYVMDAWGQGASVTVSS
VL: DIQMTQSPASLSTFLGEPVTIECRASEDIYNDLAWYQQKPGKSPQLLIYNANSLHTGVPSRFSGSGSGTQYSLKINSLQSEDVASYFCQQYYDYPLTFGSGTKLEIK
notes: Human IgG4 monoclonal antibody with S228P in the constant region, made according to WO 2019/126514 A2; also called benchmark antibody J-19
Inhibition (%) [1]: 59% | Inhibition (%) [3]: 100% | relative binding signal of Ab2 in tandem [4]: 32% | OD450 [5]: 0.09 | OD450 [6]: 3.27 | IC50 [11]: 0.07 nM | TOP Blocking (%) [11]: 100% | OD450 [8]: 0.08 | OD450 [9]: 0.08 | Inhibition (%) [10]: 97%

B3: 043c (antibody, V domains shown)
VH: QVQLQQSGAELAKPGASVKLSCKASGYTFTSYWMYWVKQRPGQGLEWIGHINPSSGYTKYNQKFKDKATLTADKSSSTAYMQLSSLTYEDSAVYYCARDPNWDNYWGQGTTLTVSS
VL: DIVMTQSHKFMSTSVGDRVSITCKASQDVSIAVAWYQQKPGQSPKLLIYSASYRYTGVPDRFTGSGSGTDFTFTISSVQAEDLAVYYCQQHYSTPYTFGGGTKLEIK
notes: Human IgG4 chimeric antibody with S228P mutation at the Fc region; also called chimeric antibody 043c; parental antibody 043c
Inhibition (%) [1]: 63% | EC50 [12]: 0.45 nM | TOP MFI [12]: 45300 MFI | EC50 [2]: 0.29 nM | Inhibition (%) [3]: 100% | EC50 [13]: 0.73 nM | relative binding signal of Ab2 in tandem [4]: 108% | OD450 [5]: 0.08 | OD450 [6]: 2.72 | EC50 [7]: 0.32 nM | IC50 [11]: 0.11 nM | TOP Blocking (%) [11]: 100% | Relative cytokine level, CCL2/JE/MCP-1 (DC differentiation assay, Soluble antibody, Luminex) [14]: 2.36 fold of hIgG4 iso | Relative cytokine level, CCL3/MIP-1 alpha (DC differentiation assay, Pre-coat antibody, Luminex) [14]: > 5 fold of hIgG4 iso | Relative cytokine level, CCL3/MIP-1 alpha (DC differentiation assay, Soluble antibody, Luminex) [14]: 5.79 fold of hIgG4 iso | Relative cytokine level, CCL20/MIP-3 alpha (DC differentiation assay, Pre-coat antibody, Luminex) [14]: 1.75 fold of hIgG4 iso | Relative cytokine level, CCL20/MIP-3 alpha (DC differentiation assay, Soluble antibody, Luminex) [14]: 1.88 fold of hIgG4 iso | Relative cytokine level, CCL22/MDC (DC differentiation assay, Pre-coat antibody, Luminex) [14]: 2.61 fold of hIgG4 iso | Relative cytokine level, CCL22/MDC (DC differentiation assay, Soluble antibody, Luminex) [14]: 2.03 fold of hIgG4 iso | Relative cytokine level, CCL23/MPIF-1 (DC differentiation assay, Pre-coat antibody, Luminex) [14]: 0.48 fold of hIgG4 iso | Relative cytokine level, CCL23/MPIF-1 (DC differentiation assay, Soluble antibody, Luminex) [14]: 0.73 fold of hIgG4 iso | Relative cytokine level, IFN-beta (DC differentiation assay, Pre-coat antibody, Luminex) [14]: 3.39 fold of hIgG4 iso | Relative cytokine level, IFN-beta (DC differentiation assay, Soluble antibody, Luminex) [14]: 7.24 fold of hIgG4 iso | Relative cytokine level, IL6 (DC differentiation assay, Soluble antibody, Luminex) [14]: 1.93 fold of hIgG4 iso | Relative cytokine level, IL-1 alpha/IL-1F1 (DC differentiation assay, Pre-coat antibody, Luminex) [14]: 1.71 fold of hIgG4 iso | Relative cytokine level, IL-1 alpha/IL-1F1 (DC differentiation assay, Soluble antibody, Luminex) [14]: 1.71 fold of hIgG4 iso | Relative cytokine level, IL-6 (DC differentiation assay, Pre-coat antibody, Luminex) [14]: 1.61 fold of hIgG4 iso | Relative cytokine level, IL-8/CXCL8 (DC differentiation assay, Soluble antibody, Luminex) [14]: 1.65 fold of hIgG4 iso | Relative cytokine level, IL-10 (DC differentiation assay, Pre-coat antibody, Luminex) [14]: 2.16 fold of hIgG4 iso | Relative cytokine level, IL-10 (DC differentiation assay, Soluble antibody, Luminex) [14]: 1.69 fold of hIgG4 iso | Relative cytokine level, TNFα (DC differentiation assay, Pre-coat antibody, Luminex) [14]: 5.38 fold of hIgG4 iso | Relative cytokine level, TNFα (DC differentiation assay, Soluble antibody, Luminex) [14]: 4.71 fold of hIgG4 iso | Relative cytokine level, VEGF (DC differentiation assay, Pre-coat antibody, Luminex) [14]: 1.67 fold of hIgG4 iso | Relative cytokine level, VEGF (DC differentiation assay, Soluble antibody, Luminex) [14]: 1.43 fold of hIgG4 iso | kon [15]: 494000 M⁻¹ s⁻¹ | Relative cytokine/chemokine level, B7-H1/PD-L1 (M2-T coculture 1:1, Luminex) [16]: 1.8 fold of Medium | Relative cytokine/chemokine level, CCL3/MIP-1 alpha (M2-T coculture 1:1, Luminex) [16]: 1.3 fold of Medium | Relative cytokine/chemokine level, CCL4/MIP-1 beta (M2-T coculture 1:1, Luminex) [16]: 2.4 fold of Medium | Relative cytokine/chemokine level, CCL5/RANTES (M2-T coculture 1:1, Luminex) [16]: 3.8 fold of Medium | Relative cytokine/chemokine level, CCL19/MIP-3 beta (M2-T coculture 1:1, Luminex) [16]: 0.3 fold of Medium | Relative cytokine/chemokine level, CCL20/MIP-3 alpha (M2-T coculture 1:1, Luminex) [16]: 2.2 fold of Medium | Relative cytokine/chemokine level, CXCL2/GRO beta (M2-T coculture 1:1, Luminex) [16]: 0.4 fold of Medium | Relative cytokine/chemokine level, FGF-basic (M2-T coculture 1:1, Luminex) [16]: 1.3 fold of Medium | Relative cytokine/chemokine level, G-CSF (M2-T coculture 1:1, Luminex) [16]: 2.3 fold of Medium | Relative cytokine/chemokine level, GM-CSF (M2-T coculture 1:1, Luminex) [16]: 1.6 fold of Medium | Relative cytokine/chemokine level, Granzyme B (M2-T coculture 1:1, Luminex) [16]: 7.6 fold of Medium | Relative cytokine/chemokine level, IFN-alpha (M2-T coculture 1:1, Luminex) [16]: 2.2 fold of Medium | Relative cytokine/chemokine level, IFN-gamma (M2-T coculture 1:1, Luminex) [16]: 4.1 fold of Medium | Relative cytokine/chemokine level, IL-1beta/IL-1F2 (M2-T coculture 1:1, Luminex) [16]: 1.9 fold of Medium | Relative cytokine/chemokine level, IL-2 (M2-T coculture 1:1, Luminex) [16]: 17.8 fold of Medium | Relative cytokine/chemokine level, IL-3 (M2-T coculture 1:1, Luminex) [16]: 3.6 fold of Medium | Relative cytokine/chemokine level, IL-4 (M2-T coculture 1:1, Luminex) [16]: 1.6 fold of Medium | Relative cytokine/chemokine level, IL-5 (M2-T coculture 1:1, Luminex) [16]: 2.3 fold of Medium | Relative cytokine/chemokine level, IL-6 (M2-T coculture 1:1, Luminex) [16]: 0.2 fold of Medium | Relative cytokine/chemokine level, IL-13 (M2-T coculture 1:1, Luminex) [16]: 1.8 fold of Medium | Relative cytokine/chemokine level, IL-15 (M2-T coculture 1:1, Luminex) [16]: 1.8 fold of Medium | Relative cytokine/chemokine level, PDGF-AA (M2-T coculture 1:1, Luminex) [16]: 4.3 fold of Medium | Relative cytokine/chemokine level, PDGF-AB/BB (M2-T coculture 1:1, Luminex) [16]: 1.5 fold of Medium | Relative cytokine/chemokine level, TGF-alpha (M2-T coculture 1:1, Luminex) [16]: 3.2 fold of Medium | Relative cytokine/chemokine level, TNF-alpha (M2-T coculture 1:1, Luminex) [16]: 4.8 fold of Medium | Relative cytokine/chemokine level, VEGF (M2-T coculture 1:1, Luminex) [16]: 0.3 fold of Medium | OD450 [8]: 0.08 | OD450 [9]: 0.09 | Inhibition (%) [10]: 89%
